Reference: publication PMC7046635, “A combined experimental and modelling approach for the Weimberg pathway optimisation” (Nature Communications, 2020)

Legend:
[1] = substrate: O=C1O[C@H](CO)[C@H](O)[C@H]1O; assay: purified protein; assay type: biochemical, Caulobacter vibrioides; conditions: 100 mM HEPES/NaOH pH 7.5, 37 °C, 5 mM NAD+
[2] = substrate: NC(=O)c1ccc[n+]([C@@H]2O[C@H](COP(=O)(O)OP(=O)(O)OC[C@H]3O[C@@H](n4cnc5c(N)ncnc54)[C@H](O)[C@@H]3O)[C@@H](O)[C@H]2O)c1; assay: purified protein; assay type: biochemical, Caulobacter vibrioides; conditions: 100 mM HEPES/NaOH pH 7.5, 37 °C, varied: cofactor
[3] = substrate: NC(=O)c1ccc[n+]([C@@H]2O[C@H](COP(=O)(O)OP(=O)(O)OC[C@H]3O[C@@H](n4cnc5c(N)ncnc54)[C@H](O)[C@@H]3O)[C@@H](O)[C@H]2O)c1; assay: purified protein, by the assay type; set-up: initial rate kinetics of purified recombinant enzyme, classical Michaelis-Menten fit
Description: The five genes of the D-xylose operon, i.e., CCNA_00862–00866, were amplified by PCR using gene-specific primers (Supplementary Table 1) and the genomic DNA of C. crescentus NA1000 as template. The PCR products were cloned into pET (Novagen) expression vectors (Supplementary Table 1) and successful cloning was confirmed by sequencing (LGC genomics, Berlin). For expression, the respective plasmids were transformed into the E. coli BL21-pRIL (DE3) or Rosetta (DE3, Stratagene) (Supplementary Table 1). Overexpression was performed in LB medium containing the appropriate antibiotic. The cells were grown at 37 °C to an OD600 of 0.6–0.7 and induced with 1 mM isopropyl-β-D-thiogalactopyranoside. After induction, the cultures were further incubated at 37 °C for 4 h or at 30 °C or at 21 °C for 18–22 h (Supplementary Table 1), respectively. Cells were collected by centrifugation (15 min, 8630 × g, 4 °C) and the pellets were stored at −70 °C. Due to the choice of the vectors, all of the C. crescentus enzymes were N-terminally histidine tagged. The recombinant L-isoleucine dioxygenase from B. thuringiensis (BtDO) contained a C-terminal 6× histidine tag[47]. […] For XLA and KDXD, the inhibition constants for D-xylonate and KGSA, respectively, had to be fitted based on the conversion data, as these enzymes are analysed in coupled enzyme assays. […]

[4] = substrate: O=CCCC(=O)C(=O)O; assay: purified protein; assay type: biochemical, Caulobacter vibrioides; conditions: 100 mM HEPES/NaOH pH 7.5, 37 °C, co-substrate NAD+
[5] = substrate: NC(=O)c1ccc[n+]([C@@H]2O[C@H](COP(=O)(O)OP(=O)(O)OC[C@H]3O[C@@H](n4cnc5c(N)ncnc54)[C@H](OP(=O)(O)O)[C@@H]3O)[C@@H](O)[C@H]2O)c1; assay: purified protein; assay type: biochemical, Caulobacter vibrioides; conditions: 100 mM HEPES/NaOH pH 7.5, 37 °C, varied: cofactor
[6] = substrate: O=CCCC(=O)O; assay: purified protein; assay type: biochemical, Caulobacter vibrioides; conditions: 100 mM HEPES/NaOH pH 7.5, 37 °C, NAD(P)+
[7] = substrate: O=CCCCC=O; assay: purified protein; assay type: biochemical, Caulobacter vibrioides; conditions: 100 mM HEPES/NaOH pH 7.5, 37 °C, NAD(P)+
[8] = substrate: O=C(O)C(=O)C[C@H](O)CO; assay: purified protein; assay type: biochemical, Caulobacter vibrioides; conditions: 100 mM HEPES/NaOH pH 7.5, 37 °C, 5 mM NAD+

B1: Xylonolactonase (XLA) (Caulobacter vibrioides NA1000) (protein)
chain: MTAQVTCVWDLKATLGEGPIWHGDTLWFVDIKQRKIHNYHPATGERFSFDAPDQVTFLAPIVGATGFVVGLKTGIHRFHPATGFSLLLEVEDAALNNRPNDATVDAQGRLWFGTMHDGEENNSGSLYRMDLTGVARMDRDICITNGPCVSPDGKTFYHTDTLEKTIYAFDLAEDGLLSNKRVFVQFALGDDVYPDGSVVDSEGYLWTALWGGFGAVRFSPQGDAVTRIELPAPNVTKPCFGGPDLKTLYFTTARKGLSDETLAQYPLAGGVFAVPVDVAGQPQHEVRLV
notes: full-length gene in pET vector, N-terminal His tag, E. coli expression, Ni-TED and size exclusion
Protein B1 has a Km [1] of 450 µM, a Vmax [1] of 944 µmol/min/mg and a kcat [1] of 497 s⁻¹. It also gave a kcat/Km [1] of 1.1e+06 M⁻¹ s⁻¹.

B2: D-xylose dehydrogenase (XDH) (Caulobacter vibrioides NA1000) (protein)
chain: MSSAIYPSLKGKRVVITGGGSGIGAGLTAGFARQGAEVIFLDIADEDSRALEAELAGSPIPPVYKRCDLMNLEAIKAVFAEIGDVDVLVNNAGNDDRHKLADVTGAYWDERINVNLRHMLFCTQAVAPGMKKRGGGAVINFGSISWHLGLEDLVLYETAKAGIEGMTRALARELGPDDIRVTCVVPGNVKTKRQEKWYTPEGEAQIVAAQCLKGRIVPENVAALVLFLASDDASLCTGHEYWIDAGWR
notes: as for B1
Protein B2 has a Km ([2]; co-substrate D-xylose) of 160 µM, a Vmax ([2]; co-substrate D-xylose) of 120 µmol/min/mg and a kcat ([2]; co-substrate D-xylose) of 57 s⁻¹. It also gave a kcat/Km ([2]; co-substrate D-xylose) of 356000 M⁻¹ s⁻¹ and a Km [3] of 170 µM.

B3: α-Ketoglutarate semialdehyde dehydrogenase (KGSADH) (Caulobacter vibrioides NA1000) (protein)
chain: MTDTLRHYIGGERVAADAPAESLNPSNTNDVVAKVPMGGQAEVDAAVDAARKAFPAWADASPEVRSDLLDKVGSTIIARSADIGRLLAREEGKTLAEGIGETVRAGRIFKYFAGEALRRHGQNLESTRPGVEIQTYRQAVGVYGLITPWNFPIAIPAWKAAPALAFGNTVVIKPAGPTPATANVLADIMAECGAPAGVFNMLFGRGSMGDALIKHKDVDGVSFTGSQGVGAQVAAAAVARQARVQLEMGGKNPLIVLDDADLERAVAIALDGSFFATGQRCTASSRLIVQDGIHDKFVALLAEKVAALRVGDALDPNTQIGPAVSEDQMETSYRYIDIAASEGGRVVTGGDRIKLDNPGWYVRPTLIADTQAGMRINNEEVFGPVASTIRVKSYEEALEIANGVEFGLSAGIATTSLKHARHFQRYARAGMTMVNLATAGVDYHVPFGGTKSSSYGAREQGFAAVEFFTQTKTSYSWS
notes: as for B1
B3 gave a Km [4] of 20 µM, a Vmax [4] of 49 µmol/min/mg and a kcat [4] of 41 s⁻¹. It also gave a kcat/Km [4] of 2.05e+06 M⁻¹ s⁻¹, a Km [5] of 20 µM and a Km [6] of 400 µM. It also gave a Km [7] of 2510 µM, a Km ([2]; co-substrate KGSA) of 600 µM and a Vmax ([2]; co-substrate KGSA) of 49 µmol/min/mg. The kcat ([2]; co-substrate KGSA) was 41 s⁻¹ and the kcat/Km ([2]; co-substrate KGSA) was 68000 M⁻¹ s⁻¹.

B4: 2-Keto-3-deoxy-D-xylonate dehydratase (KDXD) (Caulobacter vibrioides NA1000) (protein)
chain: MGVSEFLPEDWKAATLLGRIDFGEGPTPVLVRGGRVEDVSKIAPTVADLMNAFQPGAVIPRGEDKGPLEALDIRPVWEDPDGAAPVKLLAPVDLQCLKAAGVTFAVSTLERVIEERARGDAGEALKIRTLLAERMGGDLKSVEPGSQGAQRLKDALIADGLWSQYLEVAIGPDAEIFTKGPTLSSMGWGDQVGVRYDSHWNNPEPEVVLLCDGSGLIRGAALGNDVNLRDFEGRSALLLSKAKDNNASCAIGPFFRLFDETFGLDDVRSAEVELKITGRDNFVLDGKSNMSLISRDPAVLAGQAYGKQHQYPDGFALFLGTMFAPIQDRDTPGQGFTHKVGDRVRVSTPKLGVLENEVTTCDKAKPWTFGISALIRNLAGRGLL
notes: as for B1
For B4, the Km [8] was 210 µM, the Vmax [8] was 107 µmol/min/mg and the kcat [8] was 74 s⁻¹. The kcat/Km [8] was 352000 M⁻¹ s⁻¹.
